Non-standard residues stand in square brackets, D forms with d. No end group written: not given here. 1Nal = N[C@@H](Cc1cccc2ccccc12)C(=O)O; 2Nal = N[C@@H](Cc1ccc2ccccc2c1)C(=O)O; β3hR = N=C(N)NCCC[C@H](N)CC(=O)O; Nle = CCCC[C@H](N)C(=O)O; Aib = CC(C)(N)C(=O)O; βAla = NCCC(=O)O
Experiments:
[1] = target: human parathyroid hormone receptor 2 (human, UniProt P49190); experiment: cell-based or functional assay
[2] = target: human parathyroid hormone receptor 1 (human, UniProt Q03431); experiment: cell-based or functional assay

B1: [Aib^1, Nle^8,18, β-Ala^17, 1-Nal^23] hPTH (1-34)-NH2 (peptide)
peptide: [Aib]VSEIQL[Nle]HNLGKHLN[βAla][Nle]ERVE[1Nal]LRKKLQDVHNF-NH2
modifications: N-terminus assumed
SMILES: CCCC[C@H](NC(=O)CCNC(=O)[C@H](CC(N)=O)NC(=O)[C@H](CC(C)C)NC(=O)[C@H](Cc1c[nH]cn1)NC(=O)[C@H](CCCCN)NC(=O)CNC(=O)[C@H](CC(C)C)NC(=O)[C@H](CC(N)=O)NC(=O)[C@H](Cc1c[nH]cn1)NC(=O)[C@H](CCCC)NC(=O)[C@H](CC(C)C)NC(=O)[C@H](CCC(N)=O)NC(=O)[C@@H](NC(=O)[C@H](CCC(=O)O)NC(=O)[C@H](CO)NC(=O)[C@@H](NC(=O)C(C)(C)N)C(C)C)[C@@H](C)CC)C(=O)N[C@@H](CCC(=O)O)C(=O)N[C@@H](CCCNC(=N)N)C(=O)N[C@H](C(=O)N[C@@H](CCC(=O)O)C(=O)N[C@@H](Cc1cccc2ccccc12)C(=O)N[C@@H](CC(C)C)C(=O)N[C@@H](CCCNC(=N)N)C(=O)N[C@@H](CCCCN)C(=O)N[C@@H](CCCCN)C(=O)N[C@@H](CC(C)C)C(=O)N[C@@H](CCC(N)=O)C(=O)N[C@@H](CC(=O)O)C(=O)N[C@H](C(=O)N[C@@H](Cc1c[nH]cn1)C(=O)N[C@@H](CC(N)=O)C(=O)N[C@@H](Cc1ccccc1)C(N)=O)C(C)C)C(C)C
- hPTHR-2 EC50 (nM), luciferase reporter gene assay [1]: 46 nM
- hPTHR-1 EC50 (nM), CRE-luciferase reporter gene assay [2]: 0.22 nM

B2: [Nle^8, β-hArg^18, 2-Nal^23] hPTH (1-34)-NH2 (peptide)
peptide: SVSEIQL[Nle]HNLGKHLNS[β3hR]ERVE[2Nal]LRKKLQDVHNF-NH2
modifications: N-terminus assumed
SMILES: CCCC[C@H](NC(=O)[C@H](CC(C)C)NC(=O)[C@H](CCC(N)=O)NC(=O)[C@@H](NC(=O)[C@H](CCC(=O)O)NC(=O)[C@H](CO)NC(=O)[C@@H](NC(=O)[C@@H](N)CO)C(C)C)[C@@H](C)CC)C(=O)N[C@@H](Cc1c[nH]cn1)C(=O)N[C@@H](CC(N)=O)C(=O)N[C@@H](CC(C)C)C(=O)NCC(=O)N[C@@H](CCCCN)C(=O)N[C@@H](Cc1c[nH]cn1)C(=O)N[C@@H](CC(C)C)C(=O)N[C@@H](CC(N)=O)C(=O)N[C@@H](CO)C(=O)N[C@@H](CCCNC(=N)N)CC(=O)N[C@@H](CCC(=O)O)C(=O)N[C@@H](CCCNC(=N)N)C(=O)N[C@H](C(=O)N[C@@H](CCC(=O)O)C(=O)N[C@@H](Cc1ccc2ccccc2c1)C(=O)N[C@@H](CC(C)C)C(=O)N[C@@H](CCCNC(=N)N)C(=O)N[C@@H](CCCCN)C(=O)N[C@@H](CCCCN)C(=O)N[C@@H](CC(C)C)C(=O)N[C@@H](CCC(N)=O)C(=O)N[C@@H](CC(=O)O)C(=O)N[C@H](C(=O)N[C@@H](Cc1c[nH]cn1)C(=O)N[C@@H](CC(N)=O)C(=O)N[C@@H](Cc1ccccc1)C(N)=O)C(C)C)C(C)C
- hPTHR-2 EC50 (nM), luciferase reporter gene assay [1]: 36 nM
- hPTHR-1 EC50 (nM), CRE-luciferase reporter gene assay [2]: 0.24 nM
